Positions count from the first letter of the chain named. Each block holds one binder with its values, some of them ahead of it.
Columns and labels:
[1] = molecular target: T1, VEGF-D (recombinant human; source not given) (human, UniProt O43915 89-205, limits assumed); assay: SPR (BIAcore) off-rate ranking of scFv clones
T1 construct: also used here as target of IC50 values averaged over Source 1 and Source 2; also called vascular endothelial growth factor-D
T1 sequence: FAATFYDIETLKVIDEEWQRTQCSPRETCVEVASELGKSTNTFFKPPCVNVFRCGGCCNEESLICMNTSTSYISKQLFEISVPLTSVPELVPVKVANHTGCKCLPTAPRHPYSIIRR
Method: Screening based on scFv binding properties involved surface plasmon resonance (SPR) measurements with a BIAcore™ biosensor. scFv variants were expressed in 200 μL E. coli cultures and the supernatants used to generate crude off-rate only kinetics, which were assessed “relative” to 1A, or other variants.

[2] = molecular target: T2, Source 1 VEGF-D, mature dimeric recombinant human VEGF-D (CSIRO) (human, UniProt O43915 89-205); assay: SPR Protocol A: IgG captured by anti-human Fc, VEGF-D dimer as analyte
T2 construct: Whole entry named; also called Source 1 VEGF-D dimer; VEGF-D dimer
T2 sequence: T1 sequence
Method: (§1) Protocol A: The first assay format, Protocol A, used an assay system where IgGs were captured on a biosensor chip surface using an anti-human IgG (Fc) antibody and the Source 1 VEGF-D dimer run over the chip as the analyte in solution. This ensured that all IgG molecules were presented to the antigen in an active orientation.
(§2) The SPR protocol was slightly modified to compensate for the dimeric nature of the VEGF-D. Ig-1A or IgG variants were analyzed using an anti-human capture kit as described for Anti-human IgG (Fc) capture above, except that 1000 RU of the IgG or IgG variant was captured on the anti-human chip surface. […] The kinetics generated using this approach are accurate within the experimental parameters set. This standard assay protocol is best suited to studying 1:1 interactions and thus, may not be ideal for analyzing binding between the IgG variants and the VEGF-D dimer. In light of this, Protocol B was also used.

[3] = molecular target: T2, Source 1 VEGF-D, mature dimeric …; assay: cell-based or functional assay
[4] = molecular target: T3, Source 2 VEGF-D, purified recombinant human VEGF-D monomer (R&D Systems, Catalog Number 622-VD/CF) (human, UniProt O43915 93-201); assay: cell-based or functional assay
T3 sequence: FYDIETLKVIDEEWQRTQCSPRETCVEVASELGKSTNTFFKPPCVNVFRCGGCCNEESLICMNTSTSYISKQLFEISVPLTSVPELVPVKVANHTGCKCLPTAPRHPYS

[5] = molecular target: T2, Source 1 VEGF-D, mature dimeric …; assay: SPR Protocol A, KD against that of Ig-1A
Method: as §1, §2

koff [1]: 0.00795 s⁻¹
B1: scFv clone AA16 (scFv)
scFv: QAQLVQSGAEVKQPGASVKVSCKASGYTFTGYNMYWVRQAPGQGLEWMGYIDPYNGDTTYNQKFKGRVTMTTDTSTSTAYMELRSLRSDDTAVYYCARTSYYGGMDYWGRGTLVTVASGGGASGGGGSGGGGSDIVMTQTPLSSPVTLGQPASISCRSSQSLVHSNGNTYLHWLQQRPGQPPRLLIYKVSNRFSGVPDRFSGSGAGTDFTLKISRVEAEDVGVYYCSQSTHVPRTFGQGTKLEIKR

koff [1]: 0.00291 s⁻¹
B2: scFv clone CJ17 (scFv)
scFv: B1 scFv with A2V, K23E, E82K

koff [1]: 0.00723 s⁻¹
B3: scFv clone DC56 (scFv)
scFv: B1 scFv with A2V, E10K, K12R, V20A

koff [1]: 0.00826 s⁻¹
B4: scFv clone CZ13 (scFv)
scFv: B1 scFv with A2V, V5A, E10K, V20A

koff [1]: 0.00643 s⁻¹
B5: scFv clone HX28 (scFv)
scFv: B1 scFv with A2V, E10K, V20A, N55S, D198G

koff [1]: 0.00637 s⁻¹
B6: scFv clone AC75 (scFv)
scFv: B1 scFv with A2V, M81V

koff [1]: 0.00379 s⁻¹
B7: scFv clone CI67 (scFv)
scFv: B1 scFv with A2V, V68A, E82K, T230A

koff [1]: 0.00212 s⁻¹
B8: scFv clone HH69 (scFv)
scFv: B1 scFv with A2V, E10K, V20A, N55S, S144G, Q238R

koff [1]: 0.00586 s⁻¹
B9: scFv clone G37 (scFv)
scFv: B1 scFv with A2V, Q3R, S100G

koff [1]: 0.00726 s⁻¹
B10: scFv clone CW16 (scFv)
scFv: B1 scFv with A2V, D89G, V146A

koff [1]: 0.00739 s⁻¹
B11: scFv clone CX03 (scFv)
scFv: B1 scFv with A2V, K19T, D198G

koff [1]: 0.00522 s⁻¹
B12: scFv clone CK61 (scFv)
scFv: B1 scFv with A2V, E10K, E82K

koff [1]: 0.00403 s⁻¹
B13: scFv clone K89 (scFv)
scFv: B1 scFv with A2V, S25R

koff [1]: 0.00661 s⁻¹
B14: scFv clone I71 (scFv)
scFv: B1 scFv with A2V, K19R

koff [1]: 0.00637 s⁻¹
B15: scFv clone DD76 (scFv)
scFv: B1 scFv with A2V, E10K, V20A, S75N

koff [1]: 0.0046 s⁻¹
B16: scFv clone W25 (scFv)
scFv: B1 scFv with A2V, E46G

koff [1]: 0.00556 s⁻¹
B17: scFv clone Z23 (scFv)
scFv: B1 scFv with A2V, E46G, G131R
notes: G131R lies in the scFv linker

koff [1]: 0.00189 s⁻¹
B18: scFv clone HW78 (scFv)
scFv: B1 scFv with A2V, S25R, S77G, E82K

koff [1]: 0.00785 s⁻¹
B19: scFv clone P88 (scFv)
scFv: B1 scFv with A2V, T138I

koff [1]: 0.00798 s⁻¹
B20: scFv clone DE03 (scFv)
scFv: B1 scFv with A2V, E10K, V20A, S25G

koff [1]: 0.00373 s⁻¹
B21: scFv clone DD25 (scFv)
scFv: B1 scFv with A2V, E10K, V20A, M48V

koff [1]: 0.00424 s⁻¹
B22: scFv clone DA74 (scFv)
scFv: B1 scFv with A2V, V5A, E10K, V20A, F193S

koff [1]: 0.00181 s⁻¹
B23: scFv clone HU75 (scFv)
scFv: B1 scFv with A2V, E82K, S144G, Q238R

koff [1]: 0.00738 s⁻¹
B24: scFv clone DC64 (scFv)
scFv: B1 scFv with A2V, E10K, V18M, V20A

koff [1]: 0.00104 s⁻¹
B25: scFv clone HH41 (scFv)
scFv: B1 scFv with A2V, E82K, S165G

koff [1]: 0.00759 s⁻¹
B26: scFv clone CZ24 (scFv)
scFv: B1 scFv with A2V, E10K, S17N, V20A

koff [1]: 0.00738 s⁻¹
B27: scFv clone I84 (scFv)
scFv: B1 scFv with A2V, A40V

koff [1]: 0.00341 s⁻¹
B28: scFv clone D69 (scFv)
scFv: B1 scFv with A2V, Y95H, D198G

koff [1]: 0.00408 s⁻¹
B29: scFv clone CZ77 (scFv)
scFv: B1 scFv with A2V, E10K, V20A, K65R

koff [1]: 0.0091 s⁻¹
B30: scFv clone DD17 (scFv)
scFv: B1 scFv with A2V, E10K, S17G, V20A

koff [1]: 0.00575 s⁻¹
B31: scFv clone DB29 (scFv)
scFv: B1 scFv with A2V, E10K, V20A, S144G

koff [1]: 0.0072 s⁻¹
B32: scFv clone Q30 (scFv)
scFv: B1 scFv with A2V, T112A

koff [1]: 0.00611 s⁻¹
B33: scFv clone W36 (scFv)
scFv: B1 scFv with A2V, E46G

koff [1]: 0.00772 s⁻¹
B34: scFv clone G38 (scFv)
scFv: B1 scFv with A2V, A40V, V114A

koff [1]: 0.0072 s⁻¹
B35: scFv clone G75 (scFv)
scFv: B1 scFv with A2V, A40V, T112A

koff [1]: 0.00497 s⁻¹
B36: scFv clone Z49 (scFv)
scFv: B1 scFv with A2V, D89G

koff [1]: 0.00794 s⁻¹
B37: scFv clone V37 (scFv)
scFv: B1 scFv with A2V, A40V

koff [1]: 0.00657 s⁻¹
B38: scFv clone H44 (scFv)
scFv: B1 scFv with A2V, E46G, G131R, V221M
notes: G131R lies in the scFv linker

koff [1]: 0.00653 s⁻¹
B39: scFv clone H71 (scFv)
scFv: B1 scFv with A2V, K19R, T69A, S158T

koff [1]: 0.00464 s⁻¹
B40: scFv clone G11 (scFv)
scFv: B1 scFv with A2V, D198G

koff [1]: 0.00362 s⁻¹
B41: scFv clone BF36 (scFv)
scFv: B1 scFv with A2V, K63R, E82K, T112A, K212R

Kd [2]: 0.383 nM
koff [2]: 0.00014 s⁻¹
kon [2]: 360000 M⁻¹ s⁻¹
rank in the VEGFR-3-Ba/F3 bioassay [3]: 1 rank
rank in the VEGFR-3-Ba/F3 bioassay [4]: 1 rank
Fold-improvement with respect to Ig-1A [5]: 1.8 fold
B42: humanized IgG antibody derived from clone HX28 (antibody, V domains shown)
VH: QVQLVQSGAKVKQPGASVKASCKASGYTFTGYNMYWVRQAPGQGLEWMGYIDPYSGDTTYNQKFKGRVTMTTDTSTSTAYMELRSLRSDDTAVYYCARTSYYGGMDYWGRGTLVTVAS
VL: DIVMTQTPLSSPVTLGQPASISCRSSQSLVHSNGNTYLHWLQQRPGQPPRLLIYKVSNRFSGVPGRFSGSGAGTDFTLKISRVEAEDVGVYYCSQSTHVPRTFGQGTKLEIKR
notes: IgG

From patent US20120093811A1 (published 2012)
